# Test results taken from the nanobody polyreactivity screen of Harvey et al. (2022).
# Assay: yeast display, Sf9 membrane polyspecificity reagent, FACS + sequencing; frameworks hold sequencing errors
# Method in brief: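 A synthetic nanobody library was expressed on Saccharomyces cerevisiae BJ5465 by galactose induction for 36–48 hours. The library was stained for 1 hour at 4 °C with 10% biotinylated, detergent-solubilized Sf9 membrane reagent and enriched with streptavidin microbeads before FACS. Low and high (top ~1%) gates were set on anti-HA fluorescence for expression and streptavidin fluorescence for reagent binding, and each polyreactivity label reflects the gate of origin.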
row,Sequence,polyreactivity (PSR sort gate)
1,QVQLVESGGGLVQAGGSLRLSCAASGIIFDSYAMGWYRPAPGKERELVAAITSDSGRTYYADSVKGRFTISRDNAKNTVYLQMNSLKPEDTAVYYCAKRWDCPYDYWGQGTQVTVSS,low polyreactivity
2,QVQLVESGGGLVQAGGSLRLSCAASGFIFSRYAMGWYRQAPGKERELVAAISSRGGSTYYADSVKGRFTISRDNAKNTVYLQMNSLKPEDTAVYYCNVDPRYSLTPPMDYWGQGTQVTVSS,high polyreactivity
3,QVQLVESGGGLVQAGGSLRLSCAASGRIFYHYAMGWYRQAPGKERELVAGINYRGGSTTYADSVKGRFTISRDNAKNTVYLQMNSLKPEDTAVYYCATLYPWKFPIRETGFDSWGQGTQVTVSS,low polyreactivity
4,QVQLVESGGGLVQAGGSLRLSCAASGSTFVYYAMGWYRQAPGKERELVAAITSRGGSTYYADSVKGRFTISRDNAKNTVYLQMNSLKPEDTAVYYCAKYAYSFPYNYWGQGTQVTVSS,high polyreactivity
5,QVQLVESGGGLVQAGGSLRLSCAASGLIIYYNAMGWYRQAPGKERELVAAITSGGSTYYADSVKGRFTISRDNAKNTVYLQMNSLKPEDTAVYYCAAVPASYRYPMYYWGQGTQVTVSS,low polyreactivity
6,QVQLVQSGGGLVQAGGSLRLSSAASGSTFWANAMGWYRQAPGKERELVAAISVRGGNTYYADSVKGRFTISRDNAKNTVYLQMNSLKPEDTAVYYCAARPISWTSYYDYWGQGTQVSVSS,high polyreactivity
7,QVQLVESGGGLVQAGGSLRLSCAASGRTFAYYAMGWYRQAPGKERELVAAISSGGGSTYYADSVKGRFTISRDNAKNTVYLQMNSLKPEDTAVYYCNKGFEYWGQGTQVTVSS,high polyreactivity
8,QVQLVESGGGLVQAGGSLRLTCAASGLIFYRYAMGWYRQAPGKERELVATMSRSGGTYADSVKGRFTISRDNAKNTVYLQMNSLKPEDTAVYYCNARTLYAYITRDYWGQGTQVTVSS,high polyreactivity
9,QVQLVESGGGLVQAGGSLRLSCAATGSIIQWNAMGWYRQAPGKERELVAAISWSGTRTYFADSVKGRFTISRDNAKNTVYLQMNSLKPEDTAVYYCAFRGGKPTYRYDYWGQGTQVTVSS,high polyreactivity
10,QVHLVESGGGLVKAGGSLRLSCAASGSTKYYVMGWYRQAPGKERELVAAISRGSSTYYADSVKGRFTISRDNAKNTVYLQMNSLKPEDTAVYYCAARGPWQAPYDYWGQGTQVTVSS,high polyreactivity
11,QVQLVESGGGLVQAGGSLRLSCAASGRILTLNAMGWYRPAPGKERELVASIRSTGRTYYADSVKWRFTISRDNAMNTVYLQMNSLKPEDTAVYYCAADTRYRYGAYPYYEYDYWGQGTQVTVSS,low polyreactivity
12,PVQLVESGGGLVQAGGSLRLSCAASGFIFYLYAMGWYRQAPGKERELVASINVSGASTRYADSVKGRFTISRDNSKNTVYLQMKSLKPEDTAVYYCAAAITELYFEAYYYWGQGTQVTVSS,low polyreactivity
13,QVQLVESGGGLVQAGGSLSLSCAASGRSWFGNAMGWYRQAPGKERELVASISTRGGSTYYADSVKGRFTISRDNAKNTVYLQMNSLKPEDTAVYYCAKRGRDRRIYGYWGQGTQVTVSS,high polyreactivity
14,QVQLVESGGGLVQAGGSLRLSCAASGSIFPAYAMGWYIQDHGKERELLAAITRGGRTNYADSVKGRFTISRDNAKNTVYLQMNSLKPEDTAVYYCAARGYYAYRFDYWGQGTQVTVSS,high polyreactivity
15,QVQLVDSRGGLVQAGGSLRLSCAASGSIFSYYAMGWYRQAPGKEMELVAAITSSDGSTYYPDSVKGRFTISRDNAKNTVYLQINSLKPEDTAVYDCKAVRKYWLLGRYDYWGQGTQVTVSS,high polyreactivity
16,QVQLVESGGGLVQAGGSLRLSSAASGFTFRAYTMGWYRQAPGKERELVAAISWSGSSTYYADSVKGRFTISRDTAKNTVYLQMNSLKPEDTAVYYCAARHWRRWFPYDYWGQGTQVTVSS,high polyreactivity
17,QVQHVESGGGLVQAGGSLRLSCAASGSTFYENAMGWYRQAPGKERELGAGIRSTGRTYYADSVKGRFTISRDNAKNTVYIQMNSLKPEDTAVYYCAAYVGTYGEYDYWGQGTQVTVSS,low polyreactivity
18,QVQLVESGGGLVQAGGSLRLSCAASGRNFGWYAMGWYRQATGKERELVAAITSGSRTSYADSVKGRFTISRDNAKNTVYLQMNSLKPEDTAVYYCARRSYGIYYRSADDSWGQGTQVTVSS,high polyreactivity
19,QVQLVESGGGLVQAGGSLRLSCAASGFTFYNYAMGWYRQAPGKERELVAAITSSGTSTYYADSVKGRFTISRDNAKNTVYLQMNSLKPEDTAVYYCNAVSSYSYSYDYWGQGTQVTVSS,low polyreactivity
20,QVQLVESGGGLVQAGGSLRLSCAASGSIFKYYAMAWYRQSPGNERELVAAISSGGRTYYADSVKGRFTISRDNAKNTVYLQMNSLKPEDTAVYYCNRVGTYHSYDYWGQGTQVTVSS,high polyreactivity
21,QVQLVESGGGLVQAGGSLRLSCAASGRIIGSNTMGWYRQAPGKEREFVATISSSGGSTYYADSVKGRFTISRDNAKNTVYLQMNSLKPEDTSVYYCAAPWSSGSRGGYDYWGQGTQVTVSS,high polyreactivity
22,QVQLVESGGGFVQAGGSLRLSCAASGFTFRYYAMGWYRQAPGKERELVAAISRGGNTYYADSVKGRFTMSRDNAKNTVYLQMNSLKPEDTAVYFCNSAYLYIARHGYWGQGTQVTVSS,high polyreactivity

row,Sequence,polyreactivity (PSR sort gate)
1,QVHLVESGGGLVQAGGSLRLSCAACGSNLFVNTMGWYRQAPGKERELVAAISWIDGSTYYADSVKGRFTISRDNAKNSVYLHMNSLKPEDTAVYYCAASTYWREYDYWGQGTQVNVSS,low polyreactivity
2,QVQLVESGGGLVQAGGSLRLSCAASGSTFYINAMRWYRPAPGKERELVAAISWSGGSTYYADSVKGRFTISRDNAKNTVYLQMNSLKPEDTAVYYCAADWYLGWSLDYDYWGQGTQVTVSS,low polyreactivity
3,QVQLVESGGGLVQAGGSLRLSCAASGRTFGEYAMGWYRQAPGKERELVADITNGSRTYYADSVKGRFTISRDNAKNTVYLQMNSLKPEDTAVYYCAADWWKEVDYWGQGTHVTVSS,low polyreactivity
4,QVQLVESGGGLVQAGGSLRLSCAASGLIFGSNAMGWYRQAPGKERELVAGISGSGEHYVLRRSVKGRVTISRDNAKNTVYVPMNSLKPEDTAVYYCATYSQSSKGPAGYDYWGQGTHVTVSS,high polyreactivity
5,QVQLVESGGGLVQAGGSLRLSCAASGRIFIGNAMGWYRQAPGKERELVAAISRRGGTTYYADSVKGRFTISRDNAKNTVYLQMNSLKPEDTAVYYCNKEWTYEHGYWGQGTQVTVSS,high polyreactivity
6,QVQLVESGGGLVQAGGSLRLSCAASGRTFDYYAMGWYRPAPGKERELVARISWNGGSTRYADSVKGRFTISRDNAKNTVYLQMNSLKPEDTAVYYCKKVPYYAGQHYDYWGRGTQVTVSS,high polyreactivity
7,HVQLVESGGGLVQAGGRLRLSCAPSGSIFGLYGMGWYRQAPGKEREFVAAISQSGGRTYYADSVKGRFTISRDNAQNTVYLQMNSLKPEDTAVYYCATYVQRRGQYGIYDYWGQGTQVTVSS,high polyreactivity
8,QVQLVESGGGLVQAGGSLRLSCAASGLTFYYYDMGWYRQAPGKERELVAAITSGGSSTYYADSVKGRITISRDNAKNTVYLQMNSLKPEDTAVYYCNADSPYIPYIYDYWGQGTQVTVSS,low polyreactivity
9,QVQLVESGRGLVQAGGSLRLSCAASGIIFELYAMGWYRQAPGKEREFVAAINFSDGSTDYADSVKGRFTISRDNAKKTVYLKMNSLKPEDTAVYYCNADSIAYGSIIHGYWGQGTQVTVSS,low polyreactivity
10,QVQLVESGGGLVQAGGSLRLSCAASGFTFSVYAMGWYRQAPGKERELVADIDWSGGSTYYADSVKGRFTISRDNAKNTVYLQMNSLNPEDTAVYYCAADYYYPDSYVQGTSGEYWGQGTQVTVSS,low polyreactivity
11,QVQLVESGGGLVQAGGSLRLSCAASGITFGYYTMGWYRQAPGKEREFDAAISSTGGTYYADSVKGRFTISRDNAQNTVYLQMNSLKPEDTAVYYCAATFIQVVVNVQLYDYDYWGQGTQVTVSS,low polyreactivity
12,QVQLVESGGGLVQAGGSLRLSCAASGRTFSAYAMGWSRQAPGKERELVAAISRSGGRTYYADSVKGRFTISRDNAKNTVYLQMNSLKPEDTAVYYCAAGSNIWGQGTQVTVSS,high polyreactivity
13,QVQLVESGGGLVQAGGSLRLSCAASGSTFQINAMGWYRQAHGKERALVAAIDGGGDTYYADSVKGRFTISRDNAKKTDYLQMNSLKPEDTAVYYCAAERRIYYQDFNYCGQGTQVTVSS,low polyreactivity
14,QVQLVESGGGLVQAGGSLRLSCAASGSTFSYYAMGWYRQAPGKEWELVAAIRSGGSTYYADSVKGRFTISRDNAKNTVYLQMNSLKPEDTAVYYCNADYIRASTLNYGTIYYWHYDYWGQGTQVTVSS,high polyreactivity
15,QVQLVESGGGLVQAGGSLRLSCAASGRTFSVYAMGWYRQAPGKEREFVATISYSGVRTSYADSVKGRFTISRDNAKNTGYLQMNSLKPEDTAVYYCNARTYYPVYYRDGGYWGQGTQVTVSS,high polyreactivity
16,QVQLVESGGGLVQAGGSLRLSCGASGRIFSYYAMGWYRQAPGKERELVAAINTGGDTYYADSVKGRFTISRDNAKNTVYLQMNSLKPEDTAVYYCAAAYGWGYYYGYGYTPTYDYWGQGTQVTVSS,low polyreactivity
17,QVQLVESGGGLVQAAGSLRLSCAASGLIFQNYPMGWYRQAPGKERELVARISRRGGSTYYADSVKGRFTISRDNAKNPVYLQMISLKQEDTAVYYCAAGWTRWTSKRFEYWGQGTQVTVSS,high polyreactivity
18,QVQLVESGGGLVQAGGSLRLSCAASGRTFFRYAMGWYRQAPGKERELVADISKGGGSTYYADSVKGRFTISRDNAKNTVYLQMNSLKPEDTAVYYCAADQYYERDNFGAERYYWGQGTQVTVSS,high polyreactivity
19,QVQLVESGGGLVQAGGSLRLSCAASGRTFYTYAMGWYRQAPGKEREFVAAITGSGGSTYYADSVKGRFTISRDNAKNTVYLQLNSLKPEDTAVYYCNARSPGDVWYYYWGQGTQVTVSS,low polyreactivity
20,QVQLVESGGGLVQAGGSLRLSCAASGSTFITYGMGWYRQAPGKERELVARITLSGGSTYYADSVKGRFTISRDNAKNTVYLQINSLKPEDTAVYYCATDFGWQYYVLDGYYWGQGTQVTVSS,low polyreactivity
21,QVQLVEAGGGLVQAGGSLRLSCAASGYIGGNAMGWYRQAPGKERELVANISRSGGSTYYADSVKGRFTISRDNAKNTVYLQMNSLKPEDTAVYYCAAVSYGKYHWGMYYWGQGTQVTVSS,high polyreactivity
